Reference: patent US20080213281A1, “Butyrylcholinesterase Variants that Alter the Activity of Chemotherapeutic Agents” (priority 2002, published 2008)
Positions count from the first letter of the chain named. Names and notes keep the numbering of the source. Like-named read-outs stand apart in the source and are kept apart here.

Key:
[1] = cited from earlier work; for Km: Humerickhouse et al., read-out: Km (CPT-11 conversion)
[2] = patients treated with 200 mg/m2 CPT-11; for at least 24 hours; Ducreux et al.; cited from earlier work
CD20 (human) = CD20 (human) (UniProt P11836); test: method not stated
[3] = in vitro; Pavillard et al.; cited from earlier work
CD20 = target: T1, CD20 (Homo sapiens, UniProt P11836); test: affinity of monovalent AME133 Fab for CD20; type: binding
T1 sequence (P11836 1-297): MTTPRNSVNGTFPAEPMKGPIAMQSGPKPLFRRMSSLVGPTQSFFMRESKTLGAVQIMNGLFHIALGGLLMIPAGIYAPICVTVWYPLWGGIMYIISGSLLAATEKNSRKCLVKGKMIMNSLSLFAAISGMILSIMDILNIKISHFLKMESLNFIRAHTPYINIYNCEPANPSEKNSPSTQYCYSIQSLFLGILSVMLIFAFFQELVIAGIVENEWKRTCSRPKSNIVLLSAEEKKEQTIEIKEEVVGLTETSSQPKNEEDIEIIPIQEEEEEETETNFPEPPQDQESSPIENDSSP
Excerpt: AME133 is a humanized anti-CD20 with fully human germline framework regions shown in FIGS. 19 and 20 and set forth as SEQ ID NOS: 198 and 200, with corresponding nucleic acid sequences SEQ ID NOS: 197 and 199. This antibody was generated at Applied Molecular Evolution using the company's directed evolution strategies, and the monovalent Fab binds to CD20 with extremely high affinity (1×10^−9 M). Anti-CD20-BChE.4-1 (SEQ ID NO: 202) is composed of AME133 Fab fused at the C-terminal end of the CH1 heavy chain domain to the N-terminus of modified BChE variant L530 (SEQ ID NO: 204), which is a functional fragment of reference SEQ ID NO: 180. The BChE variant was truncated at amino acid 530 to abrogate its normal assembly into tetramers.

[4] = o-nitrophenyl acetate (o-NPA) hydrolysis assay for carboxylesterase activity of antibody-captured butyrylcholinesterase variants; type: biochemical; conditions: antibody capture/normalization
Method: A modification of this assay that measures o-NPA activity of butyrylcholinesterase variants normalized by capturing with an anti-butyrylcholinesterase antibody was performed as described below.
Protocol to Determine Carboxylesterase activity of Captured Butyrylcholinesterase by o-Nitrophenyl acetate:
1) Coat 96-well Immulon 2 plates with rabbit anti-human butyrylcholinesterase (Dako #A0032) at 10 mg/ml in PBS (100 ml/well) overnight at 4° C. 2) Remove coating solution and block plate with 3% BSA in PBS (250 ml/well) for 2 hours at room temperature. 3) Add 200 ml butyrylcholinesterase variant conditioned media and incubate at RT for 2 hrs. 4) Wash plate 3 times with 250 ml/well PBS. 5) Add 85 ml/well 0.1 M potassium phosphate pH 7.0 6) Add 13.6 mg o-NPA to 100 ml acetonitrile, mix to dissolve. Add 100 ml of this stock to 6.3 mls water and mix well. 7) Wash plate 3 times with PBS. 8) Add 15 ml of diluted o-NPA substrate. 9) Read absorbance at 405 nm.
Conditioned media from butyrylcholinesterase variants that were transiently expressed in 293T cells was tested using the above described anti-butyrylcholinesterase antibody capture/normalization assay for carboxylesterase activity. […] The level of activity of the other variants can be compared to the level of activity of F227A. […] In order to determine the amount of variability present in the assay, several wells contained the same variant. […]

[5] = HPLC assay of CPT-11 conversion to SN-38 by conditioned media of transiently expressed BChE variants; type: biochemical; conditions: conditioned media
Method: Butyrylcholinesterase variants were assayed for CPT-11 conversion activity using fluorescent High Performance Liquid Chromotography (HPLC) detection of SN-38 formation as described in Dodds and Rivory, Mol. Pharmacol. 56:1346-1353 (1999), which is incorporated herein by reference. Briefly, conditioned media from transiently expressed BChE variants were exposed to 20 mM CPT-11 for 72 hours at 37° C. and analyzed by HPLC for SN-38 formation (peak at about 4 minutes column retention time).

[6] = CPT-11 hydrolysis by BChE variant 4-1, SN38 quantitated by reverse-phase HPLC, Km by Hofstee plot; type: biochemical; conditions: for Km / fold increase in CPT-11 hydrolysis over wild-type BChE: 37° C., 24 hours; for Km: 1-80 μM CPT-11; for fold increase in CPT-11 hydrolysis over wild-type BChE: SN38 peak AUC; for fold improvement in the Km for CPT-11: over wild-type / native serum BChE
Method: BChE plasmid variants were expressed transiently in the human embryonic kidney cell line 293T and assayed for activity at 72 hours post-transfection. Primary screening of variants was performed by indirect measurement of enzymatic activation of CPT-11 (FIG. 2) in SW48 colon carcinoma cell cytotoxicity assays. […] Functional hits identified in these assays were characterized by sequence analysis of the corresponding DNA from the original preps. […] Enzyme was incubated at 37° C. for 24 hours with CPT-11 over a range of concentrations from 1-80 μM. […] Velocity (v) is in light absorbance units at 540 nm. Substrate concentration [s] is μM CPT-11.
Samples were acidified and resolved by reverse-phase HPLC on a NovaPak C18 column to separate SN38 from unactivated CPT-11. SN38 peak area under the curve (AUC) was used to compare CPT-11 activation by the wild-type enzyme to the optimized BChE.4-1 variant.

Molecule: hCE-1
- Km [1]: 43 µM

Molecule: CCc1c2c(nc3ccc(OC(=O)N4CCC(N5CCCCC5)CC4)cc13)-c1cc3c(c(=O)n1C2)COC(=O)[C@]3(O)CC [CPT-11, 7-ethyl-10-[4-(1-piperidino)-1-piperidine]carbonyloxycamptothecin]
- plasma concentration of CPT-11 [2]: above 0.1 μM

Molecule: AME133 Fab (humanized anti-CD20 with fully human germline framework regions)
- Kd (CD20 (human)): 1 nM

Molecule: CCc1c2c(nc3ccc(O)cc13)-c1cc3c(c(=O)n1C2)COC(=O)[C@]3(O)CC [SN38, 7-ethyl-10-hydroxycamptothecin]
- fold more cytotoxic than CPT-11 [3]: greater than 1000 fold

B1: AME133 (protein)
light: EIVLTQSPGTLSLSPGERATLSCRASSSVPYIHWYQQKPGQAPRLLIYATSALASGIPDRFSGSGSGTDFTLTISRLEPEDFAVYYCQQWLSNPPTFGQGTKLEIKRTVAAPSVFIFPPSDEQLKSGTASVVCLLNNFYPREAKVQWKVDNALQSGNSQESVTEQDSKDSTYSLSSTLTLSKADYEKHKVYACEVTHQGLSSPVTKSFNRGEC
heavy: EVQLVQSGAEVKKPGESLKISCKGSGRTFTSYNMHWVRQMPGKGLEWMGAIYPLTGDTSYNQKSKLQVTISADKSISTAYLQWSSLKASDTAMYYCARSTYVGGDWQFDVWGKGTTVTVSSASTKGPSVFPLAPSSKSTSGGTAALGCLVKDYFPEPVTVSWNSGALTSGVHTFPAVLQSSGLYSLSSVVTVPSSSLGTQTYICNVNHKPSNTKVDKKAEPKSCDKTHTCPPCPKLEDDIIIATKNGKVRGMNLTVFGGTVTAFLGIPYAQPPLGRLRFKKPQSLTKWSDIWNATKYANSCCQNIDQSFPGFFGSEMWNPNTDLSEDCLYLNVWIPAPKPKNATVLIWIYGGGFQTGTSSLHVYDGKFLARVERVIVVSMNYRVGALGFLALPGNPEAPGNMGLFDQQLALQWVQKNIAAFGGNPKSVTLFGESAGAASVSLHLLSPGSHSLFTRAILQSGSANAPWAVTSLYEARNRTLNLAKLTGCSRENETEIIKCLRNKDPQEILLNEAFVVPYGTNLSVNFGPTVDGDFLTDMPDILLELGQFKKTQILVGVNKDEGTAFLAYGAPGFSKDNNSIITRKEFQEGLKIFFPGVSEFGKESILFHYTDWVDDQRPENYREALGDVVGDYNFICPALEFTKKFSEWGNNAFFYYFEHRSSKLPWPEWMGVMHGYEIEFVFGLPLERRDNYTKAEEILSRSIVKRWANFAKYGNPNETQNNSTSWPVFKSTEQKYLTLNTESTRIMTKLRAQQCRFWTSFFPKV
modifications: Synthetic butyrylcholinesterase variant; MISC_FEATURE (1)..(213): Anti-CD20 antibody light chain; MISC_FEATURE (1)..(765): Anti-CD20 antibody VH-CH1 hinge cys L530 BChE.4-1 heavy chain construct
- Kd (CD20): 1 nM

B2: wild-type butyrylcholinesterase (protein, UniProt P06276 29-602, looked up)
Cholinesterase: EDDIIIATKNGKVRGMNLTVFGGTVTAFLGIPYAQPPLGRLRFKKPQSLTKWSDIWNATKYANSCCQNIDQSFPGFHGSEMWNPNTDLSEDCLYLNVWIPAPKPKNATVLIWIYGGGFQTGTSSLHVYDGKFLARVERVIVVSMNYRVGALGFLALPGNPEAPGNMGLFDQQLALQWVQKNIAAFGGNPKSVTLFGESAGAASVSLHLLSPGSHSLFTRAILQSGSFNAPWAVTSLYEARNRTLNLAKLTGCSRENETEIIKCLRNKDPQEILLNEAFVVPYGTPLSVNFGPTVDGDFLTDMPDILLELGQFKKTQILVGVNKDEGTAFLVYGAPGFSKDNNSIITRKEFQEGLKIFFPGVSEFGKESILFHYTDWVDDQRPENYREALGDVVGDYNFICPALEFTKKFSEWGNNAFFYYFEHRSSKLPWPEWMGVMHGYEIEFVFGLPLERRDNYTKAEEILSRSIVKRWANFAKYGNPNETQNNSTSWPVFKSTEQKYLTLNTESTRIMTKLRAQQCRFWTSFFPKVLEMTGNIDEAEWEWKAGFHRWNNYMMDWKNQFNDYTSKKESCVGL
- carboxylesterase activity relative to the level of activity seen with F227A [4]: approximately 50%
- CPT-11 conversion ([5]; HPLC assay): less than 1%
- SN-38 formation from CPT-11 (in words) ([5]; HPLC, compared to mock or wild-type): did not show detectable levels of SN-38
- Km [6]: 40 µM

B3: 4-1 variant (protein)
chain: B2 Cholinesterase with H77F, F227X, P285N, V331A
modifications: Synthetic butyrylcholinesterase variant; VARIANT (77)..(77): H77F; VARIANT (227)..(227): Xaa = Ala; VARIANT (285)..(285): P285N; VARIANT (331)..(331): V331A
- Km [6]: ~7 µM
- Km ([6]; listed as BChE variant 4-1): 6.9 µM
- fold increase in CPT-11 hydrolysis over wild-type BChE [6]: > 3000 fold
- fold increase in CPT-11 hydrolysis over wild-type BChE ([6]; listed as BChE variant 4-1): > 3000 fold
- fold increase in CPT-11 hydrolysis over wild-type BChE ([6]; listed as SEQ ID NO: 180): three thousand
- fold improvement in the Km for CPT-11 [6]: 5-6 fold
- fold improvement in the Km for CPT-11 ([6]; listed as BChE variant 4-1): > 5 fold

B4: hCE-2 (protein, UniProt O00748 27-559, looked up)
Cocaine esterase: QDSASPIRTTHTGQVLGSLVHVKGANAGVQTFLGIPFAKPPLGPLRFAPPEPPESWSGVRDGTTHPAMCLQDLTAVESEFLSQFNMTFPSDSMSEDCLYLSIYTPAHSHEGSNLPVMVWIHGGALVFGMASLYDGSMLAALENVVVVIIQYRLGVLGFFSTGDKHATGNWGYLDQVAALRWVQQNIAHFGGNPDRVTIFGESAGGTSVSSLVVSPISQGLFHGAIMESGVALLPGLIASSADVISTVVANLSACDQVDSEALVGCLRGKSKEEILAINKPFKMIPGVVDGVFLPRHPQELLASADFQPVPSIVGVNNNEFGWLIPKVMRIYDTQKEMDREASQAALQKMLTLLMLPPTFGDLLREEYIGDNGDPQTLQAQFQEMMADSMFVIPALQVAHFQCSRAPVYFYEFQHQPSWLKNIRPPHMKADHGDELPFVFRSFFGGNYIKFTEEEEQLSRKMMKYWANFARNGNPNGEGLPHWPLFDQEEQYLQLNLQPAVGRALKAHRLQFWKKALPQKIQELEEPEERHTEL
- Km [1]: 3.4 µM
- rate of CPT-11 conversion to SN38, fold higher than hCE-1 ([1]; at pharmacologically relevant drug concentrations (˜1-10 μM)): 25-30 fold
